{
  "source": "paper PMC9867944",
  "about": "(2023)",
  "target": "human PD-1 protein (Acro biosystems) (human, UniProt Q15116 25-170)",
  "sequence (Q15116 25-170)": "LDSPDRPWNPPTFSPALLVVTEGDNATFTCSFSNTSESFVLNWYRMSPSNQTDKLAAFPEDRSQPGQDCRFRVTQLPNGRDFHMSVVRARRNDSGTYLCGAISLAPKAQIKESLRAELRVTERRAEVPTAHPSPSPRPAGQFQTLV",
  "assay": "SPR",
  "data": [
    {"binder": "anti-PD-1 Nb C12-Fc (Fc fusion) QVQLQELGETRCRHGGSLRLSCKVSGYTQRSYCLGWLRQAPGNEREAVAVLQHSGNFRHYADSVQGRFVISQDYTDNTVYLAMNNLKSEDAAMYYCAAVGLRVSQFNYWGQGTQVTVSS", "values": [
      {"measurement": "koff", "result": 0.00178, "unit": "s⁻¹"}
    ]}
  ]
}
